First the molecules themselves.
B1: modified ING-1 IgG with a 102G substitution (antibody, V domains shown)
VH: QIQLVQSGPELKKPGETVKISCKASGYTFTKYGMNWVKQAPGKGLKWMGWINTYTEEPTYGDDFKGRFAFSLETSASTANLQINNLKSEDTATYFCARFGSGVDYWGQGTSVTVSS
VL: QIVMTQAAFSNPVTLGTSGSISCRSSKSLLHSNGITYLYWYLQKPGQSPQLLIYQMSNLASGVPDRFSSSGSGTDFTLRISRVEAEDVGVYYCAQNLELPRTFGGGTKLEMKR
B2: modified ING-1 IgG with an A102F substitution (antibody, V domains shown)
VH: QIQLVQSGPELKKPGETVKISCKASGYTFTKYGMNWVKQAPGKGLKWMGWINTYTEEPTYGDDFKGRFAFSLETSASTANLQINNLKSEDTATYFCARFGSFVDYWGQGTSVTVSS
VL: QIVMTQAAFSNPVTLGTSGSISCRSSKSLLHSNGITYLYWYLQKPGQSPQLLIYQMSNLASGVPDRFSSSGSGTDFTLRISRVEAEDVGVYYCAQNLELPRTFGGGTKLEMKR
B3: XPA23 heavy chain R59V (Fab, V domains shown)
VH: EVQLLESGGGLVQPGGSLRLSCAASGFTFSKYFMFWVRQAPGKGLEWVSVISPSGGMTVYADSVKGRFTISRDNSKNTLYLQMNSLRAEDTAVYYCARVGYGGNSDYWGQGTLVTVSS
VL: DIQMTQSPSSVSASVGDRLTIICRASQDINRWLAWYQQTPGNAPKLLIHSATSLQSGVPSRFSGSGSGTDFTLTINSLQPEDFATYYCQQADSFPLTFGGGTKVEIK
notes: Fab, periplasmic extract; also called C5A R59V
B4: XPA23 heavy chain V50P (Fab, V domains shown)
VH: EVQLLESGGGLVQPGGSLRLSCAASGFTFSKYFMFWVRQAPGKGLEWVSPISPSGGMTRYADSVKGRFTISRDNSKNTLYLQMNSLRAEDTAVYYCARVGYGGNSDYWGQGTLVTVSS
VL: DIQMTQSPSSVSASVGDRLTIICRASQDINRWLAWYQQTPGNAPKLLIHSATSLQSGVPSRFSGSGSGTDFTLTINSLQPEDFATYYCQQADSFPLTFGGGTKVEIK
notes: Fab, periplasmic extract; also called C5A V50P
B5: XPA23 heavy chain S30V (Fab, V domains shown)
VH: EVQLLESGGGLVQPGGSLRLSCAASGFTFVKYFMFWVRQAPGKGLEWVSVISPSGGMTRYADSVKGRFTISRDNSKNTLYLQMNSLRAEDTAVYYCARVGYGGNSDYWGQGTLVTVSS
VL: DIQMTQSPSSVSASVGDRLTIICRASQDINRWLAWYQQTPGNAPKLLIHSATSLQSGVPSRFSGSGSGTDFTLTINSLQPEDFATYYCQQADSFPLTFGGGTKVEIK
notes: Fab, periplasmic extract; also called C5A S30V
B6: XPA23 heavy chain Y101G (Fab, V domains shown)
VH: EVQLLESGGGLVQPGGSLRLSCAASGFTFSKYFMFWVRQAPGKGLEWVSVISPSGGMTRYADSVKGRFTISRDNSKNTLYLQMNSLRAEDTAVYYCARVGGGGNSDYWGQGTLVTVSS
VL: DIQMTQSPSSVSASVGDRLTIICRASQDINRWLAWYQQTPGNAPKLLIHSATSLQSGVPSRFSGSGSGTDFTLTINSLQPEDFATYYCQQADSFPLTFGGGTKVEIK
notes: Fab, periplasmic extract; also called C5A Y101G
B7: XPA23 heavy chain S52L (Fab, V domains shown)
VH: EVQLLESGGGLVQPGGSLRLSCAASGFTFSKYFMFWVRQAPGKGLEWVSVILPSGGMTRYADSVKGRFTISRDNSKNTLYLQMNSLRAEDTAVYYCARVGYGGNSDYWGQGTLVTVSS
VL: DIQMTQSPSSVSASVGDRLTIICRASQDINRWLAWYQQTPGNAPKLLIHSATSLQSGVPSRFSGSGSGTDFTLTINSLQPEDFATYYCQQADSFPLTFGGGTKVEIK
notes: Fab, periplasmic extract; also called C5A S52L
B8: XPA23 heavy chain V99P (Fab, V domains shown)
VH: EVQLLESGGGLVQPGGSLRLSCAASGFTFSKYFMFWVRQAPGKGLEWVSVISPSGGMTRYADSVKGRFTISRDNSKNTLYLQMNSLRAEDTAVYYCARPGYGGNSDYWGQGTLVTVSS
VL: DIQMTQSPSSVSASVGDRLTIICRASQDINRWLAWYQQTPGNAPKLLIHSATSLQSGVPSRFSGSGSGTDFTLTINSLQPEDFATYYCQQADSFPLTFGGGTKVEIK
notes: Fab, periplasmic extract; also called C5A V99P
B9: XPA23 heavy chain S105L (Fab, V domains shown)
VH: EVQLLESGGGLVQPGGSLRLSCAASGFTFSKYFMFWVRQAPGKGLEWVSVISPSGGMTRYADSVKGRFTISRDNSKNTLYLQMNSLRAEDTAVYYCARVGYGGNLDYWGQGTLVTVSS
VL: DIQMTQSPSSVSASVGDRLTIICRASQDINRWLAWYQQTPGNAPKLLIHSATSLQSGVPSRFSGSGSGTDFTLTINSLQPEDFATYYCQQADSFPLTFGGGTKVEIK
notes: Fab, periplasmic extract; also called C5A S105L
B10: XPA23 heavy chain S30P (Fab, V domains shown)
VH: EVQLLESGGGLVQPGGSLRLSCAASGFTFPKYFMFWVRQAPGKGLEWVSVISPSGGMTRYADSVKGRFTISRDNSKNTLYLQMNSLRAEDTAVYYCARVGYGGNSDYWGQGTLVTVSS
VL: DIQMTQSPSSVSASVGDRLTIICRASQDINRWLAWYQQTPGNAPKLLIHSATSLQSGVPSRFSGSGSGTDFTLTINSLQPEDFATYYCQQADSFPLTFGGGTKVEIK
notes: Fab, periplasmic extract; also called C5A S30P
B11: XPA23 heavy chain S52I (Fab, V domains shown)
VH: EVQLLESGGGLVQPGGSLRLSCAASGFTFSKYFMFWVRQAPGKGLEWVSVIIPSGGMTRYADSVKGRFTISRDNSKNTLYLQMNSLRAEDTAVYYCARVGYGGNSDYWGQGTLVTVSS
VL: DIQMTQSPSSVSASVGDRLTIICRASQDINRWLAWYQQTPGNAPKLLIHSATSLQSGVPSRFSGSGSGTDFTLTINSLQPEDFATYYCQQADSFPLTFGGGTKVEIK
notes: Fab, periplasmic extract; also called C5A S52I
B12: XPA23 heavy chain V99L (Fab, V domains shown)
VH: EVQLLESGGGLVQPGGSLRLSCAASGFTFSKYFMFWVRQAPGKGLEWVSVISPSGGMTRYADSVKGRFTISRDNSKNTLYLQMNSLRAEDTAVYYCARLGYGGNSDYWGQGTLVTVSS
VL: DIQMTQSPSSVSASVGDRLTIICRASQDINRWLAWYQQTPGNAPKLLIHSATSLQSGVPSRFSGSGSGTDFTLTINSLQPEDFATYYCQQADSFPLTFGGGTKVEIK
notes: Fab, periplasmic extract; also called C5A V99L
B13: XPA23 heavy chain Y32A (Fab, V domains shown)
VH: EVQLLESGGGLVQPGGSLRLSCAASGFTFSKAFMFWVRQAPGKGLEWVSVISPSGGMTRYADSVKGRFTISRDNSKNTLYLQMNSLRAEDTAVYYCARVGYGGNSDYWGQGTLVTVSS
VL: DIQMTQSPSSVSASVGDRLTIICRASQDINRWLAWYQQTPGNAPKLLIHSATSLQSGVPSRFSGSGSGTDFTLTINSLQPEDFATYYCQQADSFPLTFGGGTKVEIK
notes: Fab, periplasmic extract; also called C5A Y32A
B14: XPA23 (IL-1 antibody) (antibody, V domains shown)
VH: EVQLLESGGGLVQPGGSLRLSCAASGFTFSKYFMFWVRQAPGKGLEWVSVISPSGGMTRYADSVKGRFTISRDNSKNTLYLQMNSLRAEDTAVYYCARVGYGGNSDYWGQGTLVTVSS
VL: DIQMTQSPSSVSASVGDRLTIICRASQDINRWLAWYQQTPGNAPKLLIHSATSLQSGVPSRFSGSGSGTDFTLTINSLQPEDFATYYCQQADSFPLTFGGGTKVEIK
notes: also called cA5; C5A
B15: modified XPA23 Y208L mutant (antibody, V domains shown)
VH: EVQLLESGGGLVQPGGSLRLSCAASGFTFSKYFMFWVRQAPGKGLEWVSVISPSGGMTRYADSVKGRFTISRDNSKNTLYLQMNSLRAEDTAVYYCARVGLGGNSDYWGQGTLVTVSS
VL: DIQMTQSPSSVSASVGDRLTIICRASQDINRWLAWYQQTPGNAPKLLIHSATSLQSGVPSRFSGSGSGTDFTLTINSLQPEDFATYYCQQADSFPLTFGGGTKVEIK

“And” between values parts separate entries of the source, which are not always exact repeats. Identical values can stand only once.

For the first assay, the target named is T1, Ep-CAM (UniProt P16422 24-265).
T1 chain: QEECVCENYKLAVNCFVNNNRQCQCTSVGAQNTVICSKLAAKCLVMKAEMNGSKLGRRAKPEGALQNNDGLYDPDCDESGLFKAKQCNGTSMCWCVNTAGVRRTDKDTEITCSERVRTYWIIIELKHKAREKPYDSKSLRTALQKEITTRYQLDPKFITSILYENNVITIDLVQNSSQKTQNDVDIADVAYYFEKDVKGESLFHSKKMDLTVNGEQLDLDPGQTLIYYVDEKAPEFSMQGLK
Kind of assay: Biacore SPR; Fig. 15C. Background: SPR reads the build-up and loss of mass on a sensor chip optically.
In general, Kd refers to a measure of binding affinity in units of concentration. For the molecule B1, the Kd was 0.6 nM.

A further assay has as its target T1, Ep-CAM. Put plainly: Biacore SPR; Fig. 15B.
Molecule B2 showed a Kd of 0.9 nM.

The target in another assay is biotinylated Ep-Cam (UniProt P16422). Kind of assay: DELFIA competition, negative control well, biotinylated Ep-Cam, plate-coated parental ING-1 IgG as competitor.
For the molecule negative control (wells E12-H12), the Percentage of inhibition was -0.4% and 0.1% and 0.3%.

In a further assay the target is T2, IL-1β (UniProt P01584 117-269).
T2 construct: Antigen of XPA23
Put plainly: Biacore, Fab periplasmic extract; -1 = no binding by the table's footnote.
Consider B3, for which the binding result is “no binding”.
B4: the binding result is “no binding”.
Still for that read-out and setting: for B5 the value was “no binding”; for B6, “no binding”.
The same measure, in the same setting: for B7 the value was “no binding”; for B8, “no binding”.
On the same count and under the same terms, to B9 belongs “no binding”; to B10, “no binding”; to B11, “no binding”.
With B12, the binding result was “no binding”.
Consider B13, for which the binding result is listed as “no binding”.

The next assay concerns the target IL-1β (UniProt P01584 117-269). Kind of assay: Biacore kinetic titration, IL-1β amine coupled to CM5 chip, 25 C. The protocol: In an exemplary method, an antigen such as IL-1β is amine coupled to a CM5 sensor chip. Each sample (e.g., from lowest to highest concentration) may be injected for 240 seconds at a flow rate of 30 µl/min at a selected temperature (e.g., 25° C.). Sample are allowed to dissociate for 30 seconds except the highest concentration which may be permitted 300 seconds to dissociate. The assay is run at 25° C.
Biaevaluation software (e.g., Biacore 2000 evaluation software) is used to calculate dissociation rates of individual samples and the relative amount of sample bound to each test surface. The data is fit to an appropriate kinetic model (e.g., the kinetic titration model).
The molecule B14 gave a Kd of 46 nM.
Same read-out and setting: for B15 the value was 16.2 nM.

The values above are taken from patent US20110118131A1 (published 2011).
